In series [1] the target is T1, SpaR (Sphingomonas paucimobilis rhodopsin) (Sphingomonas paucimobilis, UniProt A0A411LJN5).
T1 construct: gene HKX06_19670; E. coli C41(DE3) codon-optimised gene in pET32b (NdeI/XhoI), C-terminal His tag, DDM-solubilised, Ni-NTA and SEC; trimer
T1 sequence (A0A411LJN5 1-237): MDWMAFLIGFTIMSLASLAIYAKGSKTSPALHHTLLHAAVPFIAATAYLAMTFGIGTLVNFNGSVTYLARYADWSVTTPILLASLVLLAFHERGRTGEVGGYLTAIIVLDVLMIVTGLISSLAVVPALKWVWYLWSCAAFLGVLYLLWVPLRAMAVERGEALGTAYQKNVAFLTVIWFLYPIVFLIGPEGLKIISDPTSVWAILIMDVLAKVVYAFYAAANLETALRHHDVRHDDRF
Put plainly: X-ray crystallography, in meso crystals, […] A. The class given is binding. Conditions: covalent Schiff base to K211; crystals at pH 5.2.

For series [2], the target named is Sphingomonas paucimobilis rhodopsin (SpaR) (Sphingomonas paucimobilis). Put plainly: crystal structure; in meso (monoolein) crystals, 0.78 M NaH2PO4/K2HPO4 pH 5.2, 22 °C; space group C2; 2.8 Å.
Series [3] has the same target. Put plainly: SAXS; solubilized SpaR ~5 mg/ml in 100 mM NaCl, 0.5 mM EDTA, 0.01% NaN3, 20 mM TRIS(HCl) pH 7.2, 0.05% DDM; profile 0.04-0.26 1/A fitted with MEMPROT (detergent corona), trimer against monomer model.
For series [4] the target is unchanged. Put plainly: SEC; DDM-solubilized SpaR at five pH values (4.4, 5.4, 6.4, 7.4, 8.4); at pH 4.4 only a single trimer peak, further peaks of higher molecular weight with increasing pH. A general note: SEC sorts molecules by how far they enter the pores of the column.
Series [5] concerns the target Asp73 (position 73, …). Put plainly: UV-vis. Conditions: 150 mM NaCl, 50 mM MES, Dark (ground) state, DDM-solubilised.
The target in series [6] is Asp97 (UniProt position 97, …). The note with it: cited from earlier work.

Take `CC1=C(/C=C/C(C)=C/C=C/C(C)=C/C=O)C(C)(C)CCC1` [retinal]: the “X-ray crystallography, in meso crystals, 2.8 A” value in series [1] was “the retinal co-factor is covalently bound to the K211 residue of the helix G”. What is called stoichiometry N is a count of units in the complex or per binding partner. For “Sphingomonas paucimobilis rhodopsin (SpaR) (natural protein)”, the stoichiometry N in series [2], in series [3] and in series [4] was 3 in each case.

B1: SpaR (Sphingomonas paucimobilis rhodopsin, mirror proteorhodopsin) (Sphingomonas paucimobilis) (protein)
chain: T1 sequence (A0A411LJN5 1-237)
One may read the pKa as the negative logarithm of the acid dissociation constant. For the molecule B1, the pKa came to 0.98±0.01 in series [5] (5 mM ZnCl2, in the presence of 5 mM Zn2+) and 1.03±0.01 in series [5] (no Zn2+).

B2: Green proteorhodopsin (PR) (uncultured marine gamma proteobacterium (printed as 'Gamma-proteobacterium')) (protein)
chain: MKLLLILGSVIALPTFAAGGGDLDASDYTGVSFWLVTAALLASTVFFFVERDRVSAKWKTSLTVSGLVTGIAFWHYMYMRGVWIETGDSPTVFRYIDWLLTVPLLICEFYLILAAATNVAGSLFKKLLVGSLVMLVFGYMGEAGIMAAWPAFIIGCLAWVYMIYELWAGEGKSACNTASPAVQSAYNTMMYIIIFGWAIYPVGYFTGYLMGDGGSALNLNLIYNLADFVNKILFGLIIWNVAVKESSNA
As to B2, the pKa in series [6] is 7.68.

(Values after publication PMC10154332, “Mirror proteorhodopsins” (Communications Chemistry, 2023).)
